What is called EC50 is the midpoint of the concentration-response curve. In general, Kd refers to a measure of binding affinity in units of concentration. As usually defined, the koff is the rate constant with which the complex falls apart. As usually defined, the kon is the rate constant with which the complex forms. The low end stands for slower complex formation, the high end for faster complex formation.

The target of experiment [1] is T1, Human ANGPT2 Dimer (CC-FLD) (human, UniProt O15123 74-496, limits assumed).
T1 construct: domain: CC-FLD; also called ANGPT2 protein with His-tag; not shown: His-tag
T1 sequence (looked up): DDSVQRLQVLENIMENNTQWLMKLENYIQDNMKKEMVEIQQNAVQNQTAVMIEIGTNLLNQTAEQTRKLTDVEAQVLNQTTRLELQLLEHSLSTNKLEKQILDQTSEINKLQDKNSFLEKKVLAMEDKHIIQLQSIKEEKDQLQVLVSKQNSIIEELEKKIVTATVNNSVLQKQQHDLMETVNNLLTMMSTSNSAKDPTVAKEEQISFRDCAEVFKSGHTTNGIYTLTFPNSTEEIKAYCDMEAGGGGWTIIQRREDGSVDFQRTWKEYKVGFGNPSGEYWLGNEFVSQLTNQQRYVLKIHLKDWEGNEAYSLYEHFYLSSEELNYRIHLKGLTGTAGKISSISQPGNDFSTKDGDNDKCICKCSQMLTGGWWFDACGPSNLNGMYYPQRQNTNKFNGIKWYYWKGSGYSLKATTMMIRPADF
In words: flow cytometry blocking assay: antibody titrated against His-tagged human ANGPT2 dimer (CC-FLD) binding to HEK293 human Tie2 cells. Here is the method:
Human ANGPT2 Dimer (CC-FLD) is pre-incubated with the testing antibodies. The ANGPT2/Antibody mixture is then incubated with HEK293 human Tie2 cells at 4° C. After washing, the cells are stained with anti-His-AF647 (from GenScript) for detection of the His-tag on the ANGPT2 protein. The binding of the secondarily labelled ANGPT2 to human Tie2 cells is detected by FLOW cytometry. The average of the duplicate values for each concentration point is used to derive the curve fit graphs. Antibodies that prevent ANGPT2 from binding to the Tie2 cells are considered blocking antibodies. The results are shown in FIGS. 3A-3G and the EC50 values are shown in Table 5 based on the average of duplicate values.
(In general: A flow cytometer gives signals particle by particle.)

For experiment [2], the target named is T2, human ANGPT2 (SPR analyte) (human, UniProt O15123 275-496, limits assumed).
T2 construct: domain: FLD domain; also called HuANGPT2; human ANGPT2 FLD domain
T2 sequence (looked up): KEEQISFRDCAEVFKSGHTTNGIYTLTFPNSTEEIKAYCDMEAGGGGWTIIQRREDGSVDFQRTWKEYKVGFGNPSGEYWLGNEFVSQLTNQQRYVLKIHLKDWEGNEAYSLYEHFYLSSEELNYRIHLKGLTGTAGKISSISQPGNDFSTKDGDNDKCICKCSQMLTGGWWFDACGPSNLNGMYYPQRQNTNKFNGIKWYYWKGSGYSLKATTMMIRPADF
In words: SPR (ProteOn XPR36), antibody captured on Protein A/G, ANGPT2 as analyte, 1:1 Langmuir fit. Here is the method: (§1) The binding affinity to the various ANGPT2 analytes is determined by surface plasmon resonance (SPR) using a ProteOn XPR36 (Bio-Rad). Unless otherwise stated, all reagents are obtained from Bio-Rad. The running buffer for all assays and dilutions (except where stated) is phosphate buffered saline (PBS)/ethylenediamine tetraacetic acid (EDTA) with 0.01% Tween20 (PBS-T-EDTA). PBS-T-EDTA is prepared by adding 100 μl of 100% Tween20 to 2 L of PBS-T-EDTA with an initial concentration of 0.005% Tween20 to make a final Tween20 concentration of 0.01%. The general linearized model (GLM) sensorchip is normalized, pre-conditioned, and activated with an equal mixture of 1-ethyl-3-[3-dimethylaminopropyl]carbodiimide (EDC)/N-hydroxysulfosuccinimide (s-NHS) in the horizontal direction for 300 sec at a flow rate of 30 μl/min. Immobilization is then is done with Recombinant Protein A/G (Thermo Scientific) (60 μg/ml in 10 mM acetate pH 4.5) in the horizontal direction for 300 sec at a flowrate of 30 μl/min resulting in about 4370-4875 response units (RUs) of Protein A/G on the surface. The sensorchip is then deactivated with 1M ethanolamine HCl in the horizontal direction for 300 sec at a flowrate of 30 μl/min. The sensorchip is stabilized with 18 sec of 0.85% phosphoric acid at a flowrate of 100 μl/min 3 times horizontally and 3 times vertically.
(§2) Each ANGPT2 antibody is captured on the Protein A/G surface vertically for 300 sec at a flowrate of 30 μl/min resulting in a capture level of about 2500 RU. The baseline is stabilized by injecting PBS-T-EDTA for 60 sec at a flowrate of 100 μl/min horizontally with dissociation of 120 sec. The analyte (e.g., HuANGPT2) is injected horizontally over the captured antibody for 300 sec at a flowrate of 30 μl/min and a dissociation for 1800 sec. […] The surface is regenerated by injecting 0.85% phosphoric acid for 18 sec at a flowrate of 100 μl/min one time horizontally and one time vertically. PBS-T-EDTA is injected for 60 sec at a flowrate of 100 μl/min one time vertically and one time horizontally.
(§3) The interspot (interactions with sensor surface) and blank (PBS-T-EDTA with 0.01% Tween20 or 0 nM of analyte (here HuANGPT2)) are subtracted from the raw data.

For a further experiment, the target named is T3, cynomolgus (cyno) ANGPT2 (cynomolgus, UniProt A0A2K5VNX6 275-496).
T3 construct: domain: FLD domain; also called cyno ANGPT2 FLD domain
T3 sequence: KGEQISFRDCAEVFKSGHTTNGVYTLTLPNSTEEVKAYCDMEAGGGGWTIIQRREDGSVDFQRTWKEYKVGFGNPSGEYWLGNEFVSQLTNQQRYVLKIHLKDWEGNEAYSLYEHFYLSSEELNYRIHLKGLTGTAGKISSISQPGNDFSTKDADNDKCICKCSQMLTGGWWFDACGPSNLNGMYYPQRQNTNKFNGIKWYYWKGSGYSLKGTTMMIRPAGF
Described as above. As to the method: as §1, §2, §3

The target of a further experiment is T4, rabbit ANGPT2 (rabbit, UniProt G1T9B3 275-496).
T4 construct: domain: FLD domain; also called rabbit ANGPT2 FLD domain
T4 sequence: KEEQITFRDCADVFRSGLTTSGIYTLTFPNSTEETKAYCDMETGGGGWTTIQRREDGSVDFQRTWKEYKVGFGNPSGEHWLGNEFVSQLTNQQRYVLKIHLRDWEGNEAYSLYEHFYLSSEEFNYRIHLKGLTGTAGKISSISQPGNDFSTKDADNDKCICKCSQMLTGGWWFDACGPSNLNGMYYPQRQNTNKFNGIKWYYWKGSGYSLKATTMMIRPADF
In words: SPR (ProteOn XPR36), antibody captured on Protein A/G, rabbit ANGPT2 as analyte. As to the method:
as §1, with “vertically. […]” for “vertically.”

The target of experiment [3] is T5, rhAngiopoietin-2 (R&D systems cat 623-AN/CF) (human, UniProt O15123 19-496, limits assumed).
T5 sequence (looked up): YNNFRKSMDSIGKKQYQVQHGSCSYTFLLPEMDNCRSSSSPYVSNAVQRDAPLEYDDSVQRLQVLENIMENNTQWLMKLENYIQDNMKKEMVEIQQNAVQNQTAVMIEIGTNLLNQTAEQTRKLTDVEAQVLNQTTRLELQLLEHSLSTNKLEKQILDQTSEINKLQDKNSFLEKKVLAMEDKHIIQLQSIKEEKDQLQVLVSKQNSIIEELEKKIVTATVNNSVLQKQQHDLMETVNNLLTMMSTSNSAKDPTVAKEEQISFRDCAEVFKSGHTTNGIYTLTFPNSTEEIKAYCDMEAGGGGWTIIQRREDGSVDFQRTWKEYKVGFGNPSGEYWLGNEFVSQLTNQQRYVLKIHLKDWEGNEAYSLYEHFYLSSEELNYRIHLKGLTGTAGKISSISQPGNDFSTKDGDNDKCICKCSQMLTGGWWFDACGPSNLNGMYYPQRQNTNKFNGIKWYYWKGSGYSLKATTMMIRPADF
In words: cell-based or functional assay.

A further experiment addresses T6, rat ANGPT2 (rat, UniProt O35462 275-496, limits assumed).
T6 construct: domain: FLD domain; also called rat ANGPT2 FLD domain
T6 sequence (looked up): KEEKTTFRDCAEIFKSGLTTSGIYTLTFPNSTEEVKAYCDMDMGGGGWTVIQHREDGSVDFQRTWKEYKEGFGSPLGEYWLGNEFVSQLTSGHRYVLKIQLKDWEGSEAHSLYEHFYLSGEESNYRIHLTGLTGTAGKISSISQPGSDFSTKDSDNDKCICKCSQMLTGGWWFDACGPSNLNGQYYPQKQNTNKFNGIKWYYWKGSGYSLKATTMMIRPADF
Put plainly: SPR (ProteOn XPR36), antibody captured on Protein A/G, rat ANGPT2 as analyte. As to the method: as §1
as §2, with “horizontally. […]” for “horizontally.”

Where “and” joins values, the source holds several entries; their conditions need not be identical. Equal values may be shown once.

B1: ANGPT2-opt-13 (humanized) (antibody, human IgG1, kappa, V domains shown)
VH: QVQLVQSGAEVKKPGSSVKVSCKASGYIFIDYFINWVRQAPGQGLEWMGKIGPGSGSSSSNEKFKGRVTITADKSTSTAYMELSSLRSEDTAVYYCAREAFDYDGDYYGMAYWGQGTLVTVSS
VL: EIVMTQSPATLSVSPGERATLSCKSSQSLLSSGNQKSFLAWYQQKPGQAPRLLIYGASTRETGIPARFSGSGSGTEFTLTISSLQSEDFAVYYCQNDHSYPITFGQGTKLEIKR
notes: also called Ang2-opt-13; ANGPT-opt-13
In turn, B1 registered an EC50 in experiment [1] of 13 nM. In experiment [2], this molecule showed a Kd of 0.144 nM, a koff of 1.89e-05 s⁻¹ and a kon of 132000 M⁻¹ s⁻¹. Moreover, in the experiment with cynomolgus (cyno) ANGPT2, binding was put at a Kd of 0.146 nM, the koff amounted to 2.08e-05 s⁻¹ and the kon was determined as 142000 M⁻¹ s⁻¹. The molecule also returned a Kd in the experiment with rabbit ANGPT2 of 0.133 nM. Moreover, in experiment [3], the “Tie2 phosphorylation functional assay, EC50” value was 4.2 nM and 4 nM.

B2: ANGPT2-opt-19 (humanized) (antibody, human IgG1, kappa, V domains shown)
VH: QVQLVQSGAEVKKPGSSVKVSCKASGYIFIDYFINWVRQAPGQGLEWMGKIGPGSGSSSSNEKFKGRVTITADKSTSTAYMELSSLRSEDTAVYYCAREAFDYDGDYYGMAYWGQGTLVTVSS
VL: EIVMTQSPATLSVSPGERATLSCRASQSVLSSGNQKSFLAWYQQKPGQAPRLLIYGASTRETGIPARFSGSGSGTEFTLTISSLQSEDFAVYYCQQDHSYPITFGQGTKLEIKR
notes: also called Ang2-opt-19
For the molecule B2, in experiment [1], a half-maximal effect (EC50) was put at 15.1 nM. This molecule also returned a Kd in the experiment with rat ANGPT2 of at least 118 nM. Further, in experiment [2], the Kd stood at 0.712 nM, the koff turned out to be 5.83e-05 s⁻¹ and the kon came out at 81800 M⁻¹ s⁻¹. In the experiment with cynomolgus (cyno) ANGPT2, this molecule returned a dissociation constant (Kd) of 0.844 nM, a koff of 7.4e-05 s⁻¹ and a kon of 87700 M⁻¹ s⁻¹. For the same molecule, the “Tie2 phosphorylation functional assay, EC50” value in experiment [3] is 5 nM and 4.6 nM.
